From article PMC9839844, “PPDPF Promotes the Development of Mutant KRAS‐Driven Pancreatic Ductal Adenocarcinoma by Regulating the GEF Activity of SOS1” (Advanced Science, 2022)

Molecular target: T1, SOS1^Cat (catalytic module of SOS1: REM and CDC25 domains), recombinant (UniProt Q07889 566-1046)
T1 construct: SOS1, Cat domain (REM and CDC25 domains together); cloned into the ProEX HTb vector; also called SOS^Cat; Cat domain; source: E. coli BL21 (Rosta), purified (His beads)
T1 sequence: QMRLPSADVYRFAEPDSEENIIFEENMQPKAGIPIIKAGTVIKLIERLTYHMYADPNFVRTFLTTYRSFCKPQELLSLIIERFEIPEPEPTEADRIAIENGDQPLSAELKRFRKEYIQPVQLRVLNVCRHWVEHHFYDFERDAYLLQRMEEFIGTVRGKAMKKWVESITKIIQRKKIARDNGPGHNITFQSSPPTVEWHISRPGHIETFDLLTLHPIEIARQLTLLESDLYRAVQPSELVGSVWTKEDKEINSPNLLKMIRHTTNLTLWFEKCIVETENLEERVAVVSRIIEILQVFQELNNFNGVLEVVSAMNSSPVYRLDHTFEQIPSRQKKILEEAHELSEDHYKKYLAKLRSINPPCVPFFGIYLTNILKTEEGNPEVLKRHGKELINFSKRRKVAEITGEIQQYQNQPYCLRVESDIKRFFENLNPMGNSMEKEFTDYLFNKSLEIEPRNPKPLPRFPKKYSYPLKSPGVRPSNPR
Assay: pull-down; GST pulldown in vitro with recombinant proteins
Conditions: both partners purified

B1: PPDPF, recombinant (natural protein, UniProt Q9H3Y8 1-114, looked up)
chain: MAAIPSSGSLVATHDYYRRRLGSTSSNSSCSSTECPGEAIPHPPGLPKADPGHWWASFFFGKSTLPFMATVLESAEHSEPPQASSSMTACGLARDAPRKQPGGQSSTASAGPPS
notes: Pancreatic progenitor cell differentiation and proliferation factor (PPDPF); subcloned into pGEX-4T-1; The methods say that the beads were incubated with thrombin; also called PPDPF recombinant protein; source: E. coli BL21, purified (GST beads)
  binding result: binds
